T1: Human VE-PTP (HPTP-β) containing first eight FN3 repeats with C-terminal His6 tag (Human ½ VE-PTP ECD) (human, UniProt P23467 23-820)
T1 construct: Produced in HEK293 cells and purified by the His tag; it was not cut off; also called Human Beta ½ ECD
T1 sequence: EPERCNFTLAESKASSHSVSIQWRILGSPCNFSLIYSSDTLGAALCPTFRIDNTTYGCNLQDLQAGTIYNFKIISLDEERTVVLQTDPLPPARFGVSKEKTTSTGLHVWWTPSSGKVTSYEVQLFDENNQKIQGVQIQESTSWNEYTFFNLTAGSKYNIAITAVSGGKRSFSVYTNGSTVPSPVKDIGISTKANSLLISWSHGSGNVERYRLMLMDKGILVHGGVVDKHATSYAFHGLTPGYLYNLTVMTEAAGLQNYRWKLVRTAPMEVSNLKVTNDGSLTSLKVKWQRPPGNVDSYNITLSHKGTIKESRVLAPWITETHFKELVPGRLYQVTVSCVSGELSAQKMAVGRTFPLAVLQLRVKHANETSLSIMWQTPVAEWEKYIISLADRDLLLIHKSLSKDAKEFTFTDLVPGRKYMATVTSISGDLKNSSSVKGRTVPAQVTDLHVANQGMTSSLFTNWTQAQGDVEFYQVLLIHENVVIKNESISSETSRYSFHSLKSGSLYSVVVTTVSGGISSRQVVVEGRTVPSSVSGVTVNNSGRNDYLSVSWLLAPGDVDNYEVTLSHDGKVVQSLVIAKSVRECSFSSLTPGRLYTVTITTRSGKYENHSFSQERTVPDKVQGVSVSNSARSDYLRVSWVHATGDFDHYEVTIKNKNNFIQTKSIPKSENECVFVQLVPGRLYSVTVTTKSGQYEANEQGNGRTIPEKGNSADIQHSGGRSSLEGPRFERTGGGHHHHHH

T2: Cynomolgus VE-PTP (Cyno PTP-β) containing first eight FN3 repeats with C-terminal His10 tag (Cyno Beta ½ … (cynomolgus, UniProt P23467 25-817 (human entry)))
T2 construct: Produced in HEK293 cells; it was not cut off; also called Cyno VE-PTP
T2 chain: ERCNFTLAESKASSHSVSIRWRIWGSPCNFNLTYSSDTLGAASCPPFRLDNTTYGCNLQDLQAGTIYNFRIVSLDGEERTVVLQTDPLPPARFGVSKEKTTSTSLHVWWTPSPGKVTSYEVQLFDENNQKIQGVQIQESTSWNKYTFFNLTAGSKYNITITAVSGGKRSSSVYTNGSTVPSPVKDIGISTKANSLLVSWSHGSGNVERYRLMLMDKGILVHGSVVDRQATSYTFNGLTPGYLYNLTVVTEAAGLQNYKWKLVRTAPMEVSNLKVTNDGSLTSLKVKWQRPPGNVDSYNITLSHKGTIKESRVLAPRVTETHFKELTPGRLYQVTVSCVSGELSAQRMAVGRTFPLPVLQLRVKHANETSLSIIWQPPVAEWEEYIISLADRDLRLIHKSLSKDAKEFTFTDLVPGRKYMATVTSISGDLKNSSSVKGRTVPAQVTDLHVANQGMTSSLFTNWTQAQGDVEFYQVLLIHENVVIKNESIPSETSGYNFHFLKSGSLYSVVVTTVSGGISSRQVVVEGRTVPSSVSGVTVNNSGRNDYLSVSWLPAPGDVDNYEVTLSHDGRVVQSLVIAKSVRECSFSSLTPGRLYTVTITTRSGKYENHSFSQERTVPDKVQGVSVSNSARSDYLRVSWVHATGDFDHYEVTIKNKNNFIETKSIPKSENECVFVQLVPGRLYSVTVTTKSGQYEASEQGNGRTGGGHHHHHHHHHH


How the values were obtained:
[1] = target: T1, Human VE-PTP (HPTP-β) containing first …; experiment: SPR (Biacore 3000), antibody captured on anti-human IgG, antigen as analyte 100 nM (single concentration)
Method: (§1) Samples of each variant were further assessed by Biacore analysis to determine the binding affinity. Antibody binding experiments were performed on Biacore 3000™ at 25° C. Assay buffer: 10 mM HEPES buffer (pH 7.4), 150 mM NaCl, 3 mM EDTA, 0.05% P20 (polyoxyethylenesorbitan). […] Conjugation buffer: 10 mM sodium acetate buffer (pH 5). The flow rate used for capturing the ligand was 5 μL/min. The flow rate for the kinetic analysis was 50 μL/min. Flow cell 1 and […] of the CM5 chip were coated with maximum amounts of goat anti-human IgG. Approximately 150 RU of the test antibody was captured on flow cell 2, 3, and 4 as indicated. The antigen was flowed over the chip. Binding of the antigen to the antibodies was monitored in real time. The KD was determined from the observed kₒₙ and koff values.
A scouting analysis was performed using single analyte concentrations as indicated. At these concentrations, binding can be observed even if the ligand binding is weak. Flow cell 1 response was used for reference subtraction.

[2] = target: T2, Cynomolgus VE-PTP (Cyno PTP-β) …; experiment: ELISA, coated antigen
Method: HPTP-β, cyno PTP-β, and HPTP-η proteins were coated onto ELISA plates in coating buffer (pH 9.4). Each protein was prepared as a 1 μg/mL protein stock in 50 mM carbonate-bicarbonate. The coated proteins were aliquoted at a volume of 100 μL/well into sterile, clear, polystyrene, flat bottom 96-well plates. The plates were incubated overnight at 4° C. After overnight incubation, the plates were washed 3× with 200 μL/well of 1×PBS-T (PBS with 0.05% Tween 20). The immunizing protein was human VE-PTP (HPTP-β). The plates were then blocked with 200 μL/well of 5% blotting grade blocker non-fat dry milk in PBS-T and incubated for 1 hr at room temperature.
Primary antibody samples were prepared for the humanized variants and the negative control, anti-hCD20-hIgG4S228P, using 1 μg/well in 5% blotting grade blocker non-fat dry milk in PBS. Samples were tested in triplicates. The Fab antibody fragments were treated as the IgG antibodies. The plates were then washed 3× with PBS-T and 100 μL of primary antibody preparation was added in each well. The plates were then incubated for 1 hr at room temperature.
Then, […] Ultra TMB-ELISA was added in each well, and the plate was allowed to develop for 5 min at room temperature. After 5 min, 50 μL of 2 M sulfuric acid was added to each well to stop the reaction. The plates were then analyzed on a plate reader at an absorbance wavelength of 450 nm.

[3] = target: T1, Human VE-PTP (HPTP-β) containing first …; experiment: SPR (Biacore 3000), antibody captured on anti-human IgG, antigen as analyte 50-0 nM
Method: as §1

Binder | Ka [1] [M⁻¹] | Kd [1] [nM] | koff [1] [s⁻¹] | kon [1] [M⁻¹ s⁻¹] | binding result [2] | Ka [3] [M⁻¹] | Kd [3] [nM] | koff [3] [s⁻¹] | kon [3] [M⁻¹ s⁻¹]
humanized R15E6 variant HC2LC1 (antibody, human IgG4 S228P, kappa, V domains shown, Human IgG4 (S228P) / kappa, expressed in CHO cells; Signal peptides left out by range; also called VH2-VL1) VH: EVQLVESGGGLVQPGGSLRLSCAASGFTFNANAMNWVRQAPGKGLEWVGRIRTKSNNYATYYAGSVKDRFTISRDDSKNSLYLQMNSLKTEDTAVYYCVRDYYGSSAWITYWGQGTLVTVSS VL: DVVMTQSPSFLSASVGDRVTITCKASQHVGTAVAWYQQRPGKAPKLLIYWASTRHTGVPSRFSGSGSGTEFTLTISSLQPEDFATYFCQQYSSYPFTFGGGTKLEIKR | 7.24e+07 | 13.8 | 0.000688 | 49800 | no binding (tested: <=0.2; 1 µg/well) | 1.5e+10 | 0.0668 | 7.23e-05 | 1.08e+06
humanized R15E6 variant HC2LC3 (antibody, human IgG4 S228P, kappa, V domains shown, Human IgG4 (S228P) / kappa, expressed in CHO cells; Signal peptides left out by range; also called VH2-VL3) VH: EVQLVESGGGLVQPGGSLRLSCAASGFTFNANAMNWVRQAPGKGLEWVGRIRTKSNNYATYYAGSVKDRFTISRDDSKNSLYLQMNSLKTEDTAVYYCVRDYYGSSAWITYWGQGTLVTVSS VL: DIQMTQSPFSLSASVGDRVTITCKASQHVGTAVAWYQQKPGKAPKLLIYWASTRHTGVPSRFSGSGSGTDFTLTISSLQPEDFATYFCQQYSSYPFTFGGGTKLEIKR | 3.36e+08 | 2.98 | 0.000662 | 222000 | no binding (tested: <=0.2; 1 µg/well) | – | – | – | –
humanized R15E6 variant HC2LC2 (antibody, human IgG4 S228P, kappa, V domains shown, Human IgG4 (S228P) / kappa, expressed in CHO cells; Signal peptides left out by range; also called VH2-VL2) VH: EVQLVESGGGLVQPGGSLRLSCAASGFTFNANAMNWVRQAPGKGLEWVGRIRTKSNNYATYYAGSVKDRFTISRDDSKNSLYLQMNSLKTEDTAVYYCVRDYYGSSAWITYWGQGTLVTVSS VL: DIVMTQSPDSLAVSLGERATINCKASQHVGTAVAWYQQKPGQPPKLLIYWASTRHTGVPDRFSGSGSGTDFTLTISSLQAEDVAVYYCQQYSSYPFTFGQGTKLEIKR | 2.85e+08 | 3.51 | 0.000524 | 149000 | no binding (tested: <=0.2; 1 µg/well) | – | – | – | –
humanized R15E6 variant HC1LC2 (antibody, human IgG4 S228P, kappa, V domains shown, Human IgG4 (S228P) / kappa, expressed in CHO cells; Signal peptides left out by range; also called VH1-VL2) VH: EVQLVESGGGLVQPGGSLKLSCAASGFTFNANAMNWVRQASGKGLEWVGRIRTKSNNYATYYAGSVKDRFTISRDDSKNTAYLQMNSLKTEDTAAYYCVRDYYGSSAWITYWGQGTLVTVSS VL: DIVMTQSPDSLAVSLGERATINCKASQHVGTAVAWYQQKPGQPPKLLIYWASTRHTGVPDRFSGSGSGTDFTLTISSLQAEDVAVYYCQQYSSYPFTFGQGTKLEIKR | 3.27e+08 | 3.06 | 0.000769 | 251000 | no binding (tested: <=0.2; 1 µg/well) | 4.33e+08 | 2.31 | 0.000947 | 410000
humanized R15E6 variant HC1LC4 (antibody, human IgG4 S228P, kappa, V domains shown, Human IgG4 (S228P) / kappa, expressed in CHO cells; Signal peptides left out by range; also called VH1-VL4) VH: EVQLVESGGGLVQPGGSLKLSCAASGFTFNANAMNWVRQASGKGLEWVGRIRTKSNNYATYYAGSVKDRFTISRDDSKNTAYLQMNSLKTEDTAAYYCVRDYYGSSAWITYWGQGTLVTVSS VL: DIVMTQSPDSLAVSLGERATINCKASQHVGTAVAWYQQKPEQPPKLLIYWASTRHTGVPDRFSGSGSGTDFTLTISSLQAEDVAVYYCQQYSSYPFTFGGGTKVEIKR | 2.26e+08 | 4.42 | 0.000792 | 179000 | no binding (tested: <=0.2; 1 µg/well) | 4.44e+08 | 2.25 | 0.00134 | 596000
humanized R15E6 variant HC2LC4 (antibody, human IgG4 S228P, kappa, V domains shown, Human IgG4 (S228P) / kappa, expressed in CHO cells; Signal peptides left out by range; also called VH2-VL4) VH: EVQLVESGGGLVQPGGSLRLSCAASGFTFNANAMNWVRQAPGKGLEWVGRIRTKSNNYATYYAGSVKDRFTISRDDSKNSLYLQMNSLKTEDTAVYYCVRDYYGSSAWITYWGQGTLVTVSS VL: DIVMTQSPDSLAVSLGERATINCKASQHVGTAVAWYQQKPEQPPKLLIYWASTRHTGVPDRFSGSGSGTDFTLTISSLQAEDVAVYYCQQYSSYPFTFGGGTKVEIKR | 7.72e+07 | 13 | 0.000668 | 51500 | no binding (tested: <=0.2; 1 µg/well) | 2.3e+09 | 0.436 | 0.000429 | 986000
humanized R15E6 variant HC3LC4 (antibody, human IgG4 S228P, kappa, V domains shown, Human IgG4 (S228P) / kappa, expressed in CHO cells; Signal peptides left out by range; also called VH3-VL4) VH: EVQLVESGGGLVQPGRSLRLSCTASGFTFNANAMNWVRQAPGKGLEWVGRIRTKSNNYATYYAGSVKDRFTISRDDSKNIAYLQMNSLKTEDTAVYYCVRDYYGSSAWITYWGQGTLVTVSS VL: DIVMTQSPDSLAVSLGERATINCKASQHVGTAVAWYQQKPEQPPKLLIYWASTRHTGVPDRFSGSGSGTDFTLTISSLQAEDVAVYYCQQYSSYPFTFGGGTKVEIKR | 1.59e+08 | 6.29 | 0.000887 | 139000 | no binding (tested: <=0.2; 1 µg/well) | – | – | – | –
mouse/human chimeric antibody HC0LC0 (antibody, human IgG4 S228P, kappa, V domains shown, Murine variable domains of R15E6 on human IgG4 (S228P) and kappa constant domains, expressed in CHO cells; also called VH0-VL0) VH: EVQLVETGGGLVQPKGSMKLSCAASGFTFNANAMNWIRQAPGKGLEWVARIRTKSNNYATYYAGSVKDRFTISRDDAQNMLYLQMNDLKTEDTAMYYCVRDYYGSSAWITYWGQGTLVTVSA VL: DIVMTQSHKFMSTSVGDRVSITCKASQHVGTAVAWYQQKPDQSPKQLIYWASTRHTGVPDRFTGSGSGTDFTLTISNVQSEDLADYFCQQYSSYPFTFGSGTKLEIKR | 1.61e+08 | 6.22 | 0.000417 | 67100 | no binding (tested: <=0.2; 1 µg/well) | 3.18e+08 | 3.14 | 0.000656 | 209000

Reference: patent publication US20190077863A1 (AERPIO PHARMACEUTICALS, published 2019)
